Measured values: patent publication US20230137139A1, “BIOSYNTHESIS OF CANNABINOIDS AND C[…]” (priority 2020, published 2023)

Assays:
Format in all cases: cell-based, S. cerevisiae
[1] = system: CBCA, THCA, and CBDA production; CBGA residual substrate; experiment: In vivo TS activity assay, Example 3 metagenomic CBCAS screen, cultures fed olivetolic acid; settings: for Mean CBCA / Mean CBDA / Mean THCA: metagenomic CBCAS candidates in S. cerevisiae, secondary screen, quadruplicate; for Mean CBCA / Mean CBDA / Mean THCA / % CBCA / % CBDA / % THCA: fed 1 mM olivetolic acid; for Average CBGA residual substrate: olivetolic acid fed (Table 12); for % CBCA / % CBDA / % THCA: share of terminal cannabinoid product profile
Protocol: (§1) An assay to detect TS activity was conducted as follows: each thawed glycerol stock of candidate CBCAS transformants was stamped into a well of YEP+4% dextrose media. Samples were incubated at 30° C. in a shaking incubator for 2 days. A portion of each of the resulting cultures was stamped into a well of YEP+4% galactose+1 mM olivetolic acid (FIG. 1 Structure 6a). Samples were incubated at 20° C. and shaken in a shaking incubator for 4 days. Every 24 hours during those 4 days, 2% galactose and 1 mM olivetolic acid were spiked into the cultures. Sodium citrate buffer adjusted to pH 5.5 was added to each well at a final concentration of 100 mM. Samples were incubated at 20° C. and shaken in a shaking incubator for 2 days. A portion of each of the resulting production cultures was stamped into a well of phosphate buffered saline (PBS). Optical measurements were taken on a plate reader, with absorbance measured at 600 nm and fluorescence at 528 nm with 485 nm excitation. Samples were incubated at 30° C. in a shaking incubator for 2 days. 100% methanol was stamped into the production cultures in half-height deepwell plates. Plates were heat sealed and frozen. Samples were then thawed for 30 min and spun down at 4° C. A portion of the supernatant was stamped into half-area 96 well plates. CBCA, THCA, and CBDA production in the samples was quantified via liquid chromatography-mass spectrometry (LC-MS).
(§2) To explore whether other putative CBCASs may exist in the broader metagenome, a library of 1072 candidate CBCAS genes was designed using the A. niger CBCAS enzyme identified in Example 1 as a reference. Protein sequences were recoded in silico for expression in S. cerevisiae and synthesized in the integrative yeast expression vector shown in FIG. 5. Each candidate enzyme expression construct was transformed into an S. cerevisiae CEN.PK strain that also expressed a prenyltransferase enzyme capable of catalyzing reaction R^4 in FIG. 2. Strain t616313, expressing GFP, was included in the library screen as a negative control for enzyme activity. Strain t807925, expressing the A. niger enzyme identified in Example 1, was included in the library screen as a positive control for enzyme activity. All candidate enzymes in the library, as well as the enzyme expressed by positive control strain t807925, included an N-terminal MFalpha2 signal peptide (SEQ ID NO: 16) (with a methionine residue added at the N-terminus of the MFalpha2 signal peptide) and a C-terminal HDEL signal peptide (SEQ ID NO: 17).
The library of candidate CBCAS enzymes was assayed for activity in a primary high-throughput screen using the assay described in Example 1. Production of CBCA, THCA, and/or CBDA in the samples was quantified via LC-MS.
(§3) Based on results of the primary screen, 70 strains were carried forward to a secondary screen to confirm activity observed in the primary screen. The experimental protocol for the secondary screen was identical to the primary screen, except that additional technical replicates were included per strain, and replicate production cultures for each strain were separately fed 1 mM olivetolic acid or 1 mM divaric acid. All strains were screened in quadruplicate (FIGS. 10A-10C, Tables 10 and 11).

[2] = system: CBCVA, THCVA, and CBDVA production; CBGVA residual substrate; experiment: In vivo TS activity assay, Example 3 metagenomic CBCAS screen, cultures fed divaric acid; settings: for Average CBGVA residual substrate: divaric acid fed (Table 12); for Mean CBCVA / Mean CBDVA / Mean THCVA: secondary screen, S. cerevisiae, quadruplicate, LC-MS; for Mean CBCVA / Mean CBDVA / Mean THCVA / % CBCVA / % CBDVA / % THCVA: cultures fed 1 mM divaric acid; for % CBCVA / % CBDVA / % THCVA: share of terminal cannabinoid products
Protocol: as §1, §2, §3

[3] = system: CBCA, THCA, and CBDA production; experiment: In vivo TS activity assay, Example 2 protein engineering of A. niger CBCAS, cultures fed olivetolic acid
Procedure, shortened: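 S. cerevisiae expressing A. niger CBCAS mutants (MFalpha2/HDEL-tagged) grown 2 days at 30 °C in YEP+4% dextrose, then 4 days at 20 °C in YEP+4% galactose with 1 mM olivetolic acid, spiked every 24 h with 2% galactose and 1 mM olivetolic acid. 100 mM citrate pH 5.5 added, methanol-extracted; CBCA, THCA, CBDA quantified by LC-MS.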

[4] = system: CBCVA, THCVA, and CBDVA production; experiment: In vivo TS activity assay, Example 2 protein engineering of A. niger CBCAS, cultures fed divaric acid; settings: fed divaric acid
Procedure, shortened: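 S. cerevisiae expressing A. niger CBCAS point mutants (N-terminal MFalpha2, C-terminal HDEL signal peptides) grown 2 days at 30 °C in YEP+4% dextrose, then 4 days at 20 °C in YEP+4% galactose with 1 mM divaric acid plus daily 2% galactose and 1 mM divaric acid spikes, then 2 days with 100 mM sodium citrate pH 5.5. Methanol extracts analysed by LC-MS; quadruplicate.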

[5] = secondary screen, olivetolic acid (Table 8)
[6] = share of terminal cannabinoid product profile
[7] = S. cerevisiae strains expressing A. niger CBCAS mutants, secondary screen

Molecule | Mean CBCA [1] | Mean CBDA [1] | Mean THCA [1] | Average CBGA residual substrate [1] | % CBCA [1] | % CBDA [1] | % THCA [1] | Average CBGVA residual substrate [2] | Mean CBCVA [2] | Mean CBDVA [2] | Mean THCVA [2] | % CBCVA [2] | % CBDVA [2] | % THCVA [2] | other results
t808237 (protein) MGNTTSIAGRDCLVSALGGNAGLVAFQDQLLYQTTAVHEYNLNIPVTPAAVTYPETAEQIAAVVKCASEYDYKVQARSGGHSFGNYGLGGADGAVVVDMKHFSQFSMDDQTYEAVIGPGTTLGDVDTELYNNGKRAMAHGICPTISTGGHFTMGGLGPTARQWGLALDHVEEVEVVLANSSIVRASNTQNQEVFFAVKGAAASFGIVTEFKVRTQPAPGLAVQYSYTFNIGSSAEKAQFVKDWQSFISAKNLTRQFYTNMVIFDGDIILEGLFFGSQEQYEALGLEDRFVPKNPGNILVLTDWLGMVGHALEDTILRLVGNTPTWFYAKSLGFTPDTLIPASGIDEFFDYIENHKAGTLTWFVTLSLEGGAINDVPEDATAYGHRDVLFWVQIFMASPTGPVSSTTYDFADGLYNVLTKAVPESEGHAYLGCPDPKMADAQQKYWRQNLPRLEELKATLDPKDTFHNPQGILPA | 12281.96 µg/L | 37.34 µg/L | 760.03 µg/L | 69.20 µg/L | 93.90% | 0.29% | 5.81% | 0.00 µg/L | 3599.07 µg/L | 0.00 µg/L | 1273.10 µg/L | 73.87% | 0.00% | 26.13% | 
t808232 (protein) MGNTTSIAAGRDCLLSAVGGNHAHVAFQDQLLYQATAVEPYNLNIPVTPAAVTYPQSADEVAAVVKCAADYGYKVQARSGGHSFGNYGLGGEDGAIVVDMKHFDQFSMDESTYTATIGPGITLGDLDTALYNAGHRAMAHGICPTIRTGGHLTIGGLGPTARQWGLALDHVEEVEVVLANSSIVRASDTQNQEILFAVKGAAASFGIVTEFKVRTEEAPGLAVQYSFTFNLGTAAEKAKLVKDWQAFIAQEDLTWKFYSNMNIIDGQIILEGIYFGSKAEYDALGLEEKFPTSEPGTVLVLTDWLGMVGHGLEDVILRLVGNAPTWFYAKSLGFAPRALIPDSAIDDFFEYIHKNNPGTVSWFVTLSLEGGAINKVPEDATAYGHRDVLFWVQIFMINPLGPVSQTIYDFADGLYDVLAKAVPESAGHAYLGCPDPRMPNAQQAYWRNNLPRLEELKGDLDPKDIFHNPQGVMVVS | 20281.01 µg/L | 64.49 µg/L | 1367.99 µg/L | 0.00 µg/L | 93.40% | 0.30% | 6.30% | 0.00 µg/L | 2379.23 µg/L | 0.00 µg/L | 1626.74 µg/L | 59.39% | 0.00% | 40.61% | 
t808238 (protein) MWLSTMNGSASRRSDPVSRKIVCDGHASAHEVRTDNEAARDVPSRTAVNKERKQGSGPPGAMQRGFHAAHKPNEMVPQDGPLGRTAQLFRLAPACQSEPTRAPGQPSDLRLRQIPLATEQAARTLARMRPARFTFPYGRAAEDDCYLKKEDEGHDQSHPTSVLVGVPPFTRRCAAAETFKDTRARAPGTQPTDTTSTGASPSWTLSPLLSLSATDDSVPSKMGNGQSTPLQQCLNTVCNGRLGCVAFPSDALYQAAWVKPYNLDVPVTPIAVFKPSSTEDVAGAIKCAVASNVHVQAKSGGHSYANFGLGGQDGELMIDLANLQDFHMDKTSWQATFGAGYRLGDLDKKLQANGNRAIAHGTCPGVGIGGHATIGGLGPMSRMWGSALDHVLSVQVVTADGSIKNASESENSDLFWALRGAGASFGVITKFTVKTHPAPGSVVQYTYKISLGSQAQMAPVYAAWQALAGDPKLDRRFSTLFIAEPLGALITGTFYGTKAEYEATGIAARLPSGGTLDLKLLDWLGSLAHIAEVVGLTLGDIPTSFYGKSLALREEDMLDRTSIDGLFRYMGDADAGTLLWFVIFNSEGGAMADTPAGATAYPHRDKLIMYQSYVIGIPTLTKATRDFADGVHDRVRMGAPSANSTYAGYIDRTLSREAAQEFYWGAQLPRLREVKKAWDPKDVFHNPQSVDPAE | 2934.86 µg/L | 0.00 µg/L | 0.00 µg/L | 63815.30 µg/L | 100.00% | 0.00% | 0.00% | 9247.47 µg/L | 1841.90 µg/L | 0.00 µg/L | 282.10 µg/L | 86.72% | 0.00% | 13.28% | 
Strain t808200: library TS SEQ ID NO: 164, UniProt A0A3F3PQ52, Aspergillus welwitschiae (protein) MGNTTSIAGRDCLISALGGNSALAAFPNELLWTADVHEYNLNLPVTPAAITYPETAEQIAGIVKCASDYDYKVQARSGGHSFGNYGLGGADGAVVVDMKHFTQFSMDDETYEAVIGPGTTLNDVDIELYNNGKRAMAHGVCPTIKTGGHFTIGGLGPTARQWGLALDHVEEVEVVLANSSIVRASNTQNQDVFFAVKGAAANFGIVTEFKVRTEPAPGLAVQYSYTFNLGSTAEKAQFVKDWQSFISAKNLTRQFYNNMVIFDGDIILEGLFFGSKEQYDALGLEDHFAPKNPGNILVLTDWLGMVGHALEDTILKLVGNTPTWFYAKSLGFRQDTLIPSAGIDEFFEYIANHTAGTPAWFVTLSLEGGAINDIAEDATAYAHRDVLFWVQLFMVNPLGPISDTTYEFTDGLYDVLARAVPESVGHAYLGCPDPRMEDAQQKYWRTNLPRLQELKEELDPKNTFHHPQGVMPA |  |  |  |  |  |  |  |  |  |  |  |  |  |  | percentage of CBCA in product profile compared with the A. niger positive control [1]: higher percentage of CBCA
t865772 (protein, expressed in S. cerevisiae strain) MGNTTSIAGRDCLISALGGNSALAVFPNELLWTAAVHEYNLNLPVTPAAITYPETAAQIAGVVKCASDYDYKVQARSGGHSFGNYGLGGADGAVVVDMKHFTQFSMDDETYEAVIGPGTTLNDVDIELYNNGKRAMAHGVCPTIKTGGHFTIGGLGPTARQWGLALDHVEEVEVVLANSSIVRASNTQNQDVFFAVKGAAANFGIVTEFKVRTEPAPGLAVQYSYTFNLGSTAEKAQFVKDWQSFISAKNLTRQFYNNMVIFDGDIILEGLFFGSKEQYDALGLEDHFAPKNPGNILVLTDWLGMVGHALEDTILKLVGNTPTWFYAKSLGFRQDTLIPSAGIDEFFEYIANHTAGTPAWFVTLSLEGGAINDVAEDATAYAHRDVLFWVQLFMVNPVGPISDTTYEFTDGLYDVLARAVPESVGHAYLGCPDPRMEDAQQKYWRTNLPRLQELKEELDPKNTFHHPQGVMPA |  |  |  |  |  |  |  |  |  |  |  |  |  |  | Mean CBCA [3, 5]: 9992.22 µg/L; Mean CBDA [3, 5]: 3051.02 µg/L; Mean THCA [3, 5]: 622.72 µg/L; % CBCA [3, 6]: 73.12%; % CBDA [3, 6]: 22.33%; % THCA [3, 6]: 4.56%; Mean CBCVA [4, 7]: 1441.55 µg/L; Mean CBDVA [4, 7]: 0.00 µg/L; Mean THCVA [4, 7]: 702.24 µg/L; % CBCVA [4, 6]: 67.24%; % CBDVA [4, 6]: 0.00%; % THCVA [4, 6]: 32.76%
